Measured values reported in patent US7049398B1, “Melanocortin metallopeptide constructs, combinatorial libraries and applications” (Palatin Technologies, Inc., priority 1999, dated 2006).
Where no end group is shown, it is not given here. [ ]: non-standard residue; d: D form. The star is where a group is joined. Phe(2,4-Cl2) = N[C@@H](Cc1ccc(Cl)cc1Cl)C(=O)O; Phe(2-Cl) = N[C@@H](Cc1ccccc1Cl)C(=O)O; Phe(4-F) = N[C@@H](Cc1ccc(F)cc1)C(=O)O; 2Nal = N[C@@H](Cc1ccc2ccccc2c1)C(=O)O; Hydrocinnamoyl = O=C(CCc1ccccc1)*; hPhe = N[C@@H](CCc1ccccc1)C(=O)O; Phg = N[C@H](C(=O)O)c1ccccc1; Tle = CC(C)(C)[C@H](N)C(=O)O; Heptanoyl = CCCCCCC(=O)*; Nle = CCCC[C@H](N)C(=O)O; Tfa = O=C(C(F)(F)F)*; Bn = c1ccc(C*)cc1; βAla = NCCC(=O)O

Assays:
[1] = biological target: T1, hMC4-R (Homo sapiens, UniProt P32245); assay: Competitive inhibition binding assay, 125I-NDP-alpha-MSH, hMC4-R membranes; details: 0.4 nM 125I-NDP-alpha-MSH, hMC4-R membranes
T1 construct: expressed in transfected cells; host or cells: 293 cells
T1 sequence (P32245 whole entry): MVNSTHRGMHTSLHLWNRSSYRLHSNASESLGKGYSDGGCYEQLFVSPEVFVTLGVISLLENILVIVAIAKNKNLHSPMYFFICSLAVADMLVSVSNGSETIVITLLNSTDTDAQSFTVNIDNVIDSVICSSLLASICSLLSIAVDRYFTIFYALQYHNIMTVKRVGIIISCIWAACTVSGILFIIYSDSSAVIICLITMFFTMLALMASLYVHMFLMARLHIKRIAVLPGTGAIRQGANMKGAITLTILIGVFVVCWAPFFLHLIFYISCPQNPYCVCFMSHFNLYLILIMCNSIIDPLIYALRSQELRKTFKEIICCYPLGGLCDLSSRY
Protocol: (§1) Representative Peptides of this Invention. Representative peptides of this invention were made using library and synthesis methods described herein, and selected peptides were tested using a binding assay. […] The peptides were synthesized using conventional peptide synthesis methods, and were complexed with rhenium using the methods described herein.
(§2) The competitive inhibition binding assay was conducted using membranes prepared from hMC4-R and B-16 mouse melanoma cells (containing MC1-R) using 0.4 nM ^125I-NDP-alpha-MSH (New England Nuclear, Boston, Mass., USA) in 50 mM HEPES buffer containing 1 mM MgCl2, 2 mM CaCl2, and 5 mM KCl, at pH 7.2. The assay tube also contained a chosen concentration of the test peptide of this invention, complexed to a rhenium metal ion as indicated, for determining its efficacy in inhibiting the binding of ^125I-NDP-alpha-MSH to its receptor. Non-specific binding was measured by complete inhibition of binding of ^125I-NDP-alpha-MSH in the assay with the presence of 1 μM alpha-MSH. Incubation was for 90 minutes at room temperature, after which the assay mixture was filtered and the membranes washed three times with ice cold buffer. The filter was dried and counted in a gamma counter for remaining radioactivity bound to the membranes. 100% specific binding was defined as the difference in radioactivity (cpm) bound to cell membranes in the absence and presence of 1 μM alpha-MSH. The cpm obtained in presence of test compounds were normalized with respect to 100% specific binding to determine the percent inhibition of ^125I-NDP-alpha MSH binding. […]

[2] = biological target: T2, MC1-R (B-16 mouse melanoma cells) (Mus musculus, UniProt Q01727); assay: Competitive inhibition binding assay, 125I-NDP-alpha-MSH, B-16 mouse melanoma cell membranes; details: 0.4 nM 125I-NDP-alpha-MSH, B-16 mouse melanoma cell membranes
T2 construct: B-16 mouse melanoma cells (containing MC1-R); endogenous in cells; host or cells: B-16 mouse melanoma cells
T2 sequence (Q01727 whole entry): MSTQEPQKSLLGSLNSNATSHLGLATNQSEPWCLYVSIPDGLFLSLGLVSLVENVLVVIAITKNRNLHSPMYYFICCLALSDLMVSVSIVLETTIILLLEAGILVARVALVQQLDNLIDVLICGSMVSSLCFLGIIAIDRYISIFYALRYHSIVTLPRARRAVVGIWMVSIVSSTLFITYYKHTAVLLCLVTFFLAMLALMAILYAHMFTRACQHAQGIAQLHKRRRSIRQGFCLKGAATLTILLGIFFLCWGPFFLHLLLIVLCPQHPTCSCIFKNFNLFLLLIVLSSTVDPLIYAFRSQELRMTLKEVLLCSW
Protocol: as §1, §2

Row | Substance | % Inhibition MC4-R ([1]; Conc. cut off 1 μM) [%] | % Inhibition MC1-R (B-16) ([2]; Conc. cut off 1 μM) [%] | % Inhibition MC4-R ([1]; Conc. cut off 10 μM) [%] | % Inhibition MC1-R (B-16) ([2]; Conc. cut off 10 μM) [%]
1 | PL-808 (Ac-HWCW-NH2; also: ReO[V] metal complex) | 0 | −3 |  | 
2 | PL-811 (Ac-H[Phg]CW-NH2; also: ReO[V] complex) | 0 | −5 |  | 
3 | PL-814 (Ac-HFCW-NH2; also: ReO[V] metal complex) | 0 | −4 |  | 
4 | PL-847 (Ac-FHGCW-NH2; also: ReO[V] metal complex) |  |  | 6 | −6
5 | PL-1073 (Ac-A[Tle]CW-NH2; also: ReO complex) | 13 | −6 |  | 
6 | PL-1090 (Ac-AXCW-NH2; not fully specified (residue 2); printed as Ac-L-Ala-L-Tyr(3′,5′ di-I, 4′-Ac)-L-Cys-L-Trp-NH2; also: ReO[V] metal complex) | 10 | 2 |  | 
7 | PL-1091 ([βAla]GC(Bn)CW-NH2; also: ReO complex) | 13 | −1 |  | 
8 | PL-1093 ([βAla]G[Phe(2,4-Cl2)]CW-NH2; also: ReO complex) | 2 | 2 |  | 
9 | PL-1094 ([βAla]G[Phe(2-Cl)]CW-NH2; also: ReO complex) |  |  | 19 | 57
10 | PL-1096 ([βAla]GLCW-NH2; also: ReO complex) |  |  | 12 | 6
11 | PL-1110 (KHFCW-NH2; also: ReO complex) |  |  | 36 | 11
12 | PL-1300 (Heptanoyl-ARCW-NH2; also: ReO[V] metal complex) | 22 | 62 |  | 
13 | PL-1344 (Heptanoyl-RFHCW-NH2; also: ReO[V] metal complex) |  |  | 81 | 89

Now from value to substance:

Row | % Inhibition MC4-R ([1]; Conc. cut off 1 μM) [%] | % Inhibition MC1-R (B-16) ([2]; Conc. cut off 1 μM) [%] | % Inhibition MC4-R ([1]; Conc. cut off 10 μM) [%] | % Inhibition MC1-R (B-16) ([2]; Conc. cut off 10 μM) [%] | Substance
14 | 0 | −4 |  |  | PL-809 (Ac-H[hPhe]CW-NH2; also: ReO[V] complex)
15 | −1 | −2 |  |  | PL-810 (Ac-H[2Nal]CW-NH2; also: ReO[V] complex)
16 |  |  | 9 | 12 | PL-839 (Ac-HFWC-NH2; also: ReO[V] metal complex)
17 |  |  | 2 | 10 | PL-844 (Ac-FGCW-NH2; also: ReO[V] metal complex)
18 |  |  | 10 | 0 | PL-1089 (Ac-A[Phe(4-F)]CW-NH2; also: ReO complex)
19 | 4 | 4 |  |  | PL-1092 ([βAla]GK(Tfa)CW-NH2; also: ReO complex)
20 |  |  | 8 | 3 | PL-1095 ([βAla]G[Lys(Z)]CW-NH2; also: ReO complex)
21 |  |  | 8 | 0 | PL-1112 (HFCW-NH2; also: ReO complex)
22 |  |  | 10 | 2 | PL-1114 ([βAla]HFCW-NH2; also: ReO[V] metal complex)
23 | 19 | 1 |  |  | PL-1299 (Heptanoyl-[βAla]RCW-NH2; also: ReO[V] metal complex)
24 | 10 | 9 |  |  | PL-1309 (Heptanoyl-CRCW-NH2; cysteine pairing not given here; also: ReO[V] metal complex)
25 |  |  | 70 | 69 | PL-1315 (Ac-RW[Nle]CF-NH2; also: ReO[V] metal complex)
26 |  |  | 94 | 96 | PL-1320 (Hydrocinnamoyl-RWC[Nle]-NH2; also: ReO[V] metal complex)
27 | 12 | 26 |  |  | PL-1334 (Hydrocinnamoyl-[Nle]WCR-NH2; also: ReO[V] metal complex)
